Results published in patent US20090202619A1, “POLYOXYALKYLENE CHAIN-CONTAINING LIPID DERIVATIVE AND LIPID FILM STRUCTURE CONTAINING SUCH DERIVATIVE” (THE UNIVERSITY OF TOKUSHIMA, priority 2005, published 2009).

Parameters: species or system male ddY mouse
Details: mouse, in vivo, iv
Excerpt: Using the methylpolyoxyethylenecarbamyl-glycyl-glycyl-glycyl-distearoylphosphadylethanolamine (DSPE-GGG-PEG2000) obtained in Example 5 or the methylpolyoxyethylenecarbamyl-distearoylphosphadylethanolamine (DSPE-PEG2000), egg yolk phosphatidylcholine (EPC) or hydrogenated egg yolk phosphatidylcholine (HEPC), and cholesterol, a composition in the blending ratios shown in Table 2 below was weighed in an egg plant flask, and the liposome solutions of Example 9 and Comparative Examples 4 to 5 were obtained by the same method as (1) above but using doxorubicin in place of the fluorescent dye. To monitor the blood kinetics of the liposome per se, 40 μCi/μmol ^3H-cholesterylhexadecyl ether (^3H-CHE) was added. […]
Next, each liposome was administered to a male ddY mouse from the tail vein (25 mg lipid/kg), blood was collected 2 minutes, 30 minutes, 1 hour, 2 hours, 4 hours, 8 hours, and 24 hours after the administration, the radioactivity in blood was measured to determine the concentration of the liposome per se, and doxorubicin was measured by the fluorescence method to determine the doxorubicin concentration at that time point. Because the doxorubicin that has leaked from the liposome is quickly distributed in various tissues, doxorubicin concentrations determined by this method are considered to reflect the amount of doxorubicin retained in the liposome.

methylpolyoxyethylenecarbamyl-glycyl-glycyl-glycyl-distearoylphosphadylethanolamine [Example 4]
cleavage of the lipid derivative in blood: minimally cleaved in blood
influence on the drug-releasing characteristics of liposome: did not influence the drug-releasing characteristics of liposome
